This experiment deals with Hu-1 G614 S-6P homotrimer (SARS-CoV-2 Wuhan-Hu-1 D614G spike ectodomain, hexaproline-stabilised) (SARS-CoV-2) (UniProt P0DTC2). As to the kind of experiment: SEC.

Consider “Hu-1 G614 S-6P homotrimer (SARS-CoV-2 Wuhan-Hu-1 D614G spike ectodomain, hexaproline-stabilised) (from UniProt P0DTC2 14-1211) (natural protein)”, for which the stoichiometry N (in general, a count of units in the complex or per binding partner) is 3.

The record behind these values is publication PMC12483203.
